Data as given in US20120321619A1 (Bayer, published 2012).
Numbering of substitutions follows the chain as printed.

T1: recombinant soluble human C4.4a (human, UniProt O95274 31-308)
T1 construct: recombinant, soluble, purified protein; also called hC4.4a; full length C4.4a
T1 sequence: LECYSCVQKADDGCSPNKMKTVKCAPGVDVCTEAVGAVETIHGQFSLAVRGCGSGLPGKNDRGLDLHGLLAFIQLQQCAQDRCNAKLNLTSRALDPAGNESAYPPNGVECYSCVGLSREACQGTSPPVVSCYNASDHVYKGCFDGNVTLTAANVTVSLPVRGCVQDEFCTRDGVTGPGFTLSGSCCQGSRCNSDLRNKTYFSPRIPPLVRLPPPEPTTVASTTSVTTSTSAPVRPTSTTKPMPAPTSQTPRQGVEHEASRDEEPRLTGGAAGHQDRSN

T2: murine C4.4a on transfected CHO-S:mC4.4a cells (mouse, UniProt Q91YK8 33-343)
T2 construct: full length GPI-anchored form, stably transfected; also called Mouse C4.4a:CHO; mC4.4a: CHO
T2 sequence: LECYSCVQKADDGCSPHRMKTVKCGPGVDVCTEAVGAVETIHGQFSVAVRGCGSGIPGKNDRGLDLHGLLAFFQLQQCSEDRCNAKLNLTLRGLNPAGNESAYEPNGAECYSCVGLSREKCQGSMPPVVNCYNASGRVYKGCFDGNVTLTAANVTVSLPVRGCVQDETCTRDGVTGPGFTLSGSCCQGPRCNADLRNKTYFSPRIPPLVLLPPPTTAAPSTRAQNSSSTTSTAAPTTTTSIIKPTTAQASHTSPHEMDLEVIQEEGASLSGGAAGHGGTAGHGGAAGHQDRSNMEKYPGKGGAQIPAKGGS

T3: recombinant soluble murine C4.4a (mouse, UniProt Q91YK8 33-343, limits assumed)
T3 construct: also called mouse C4.4a; mC4.4a
T3 sequence (looked up): T2 sequence

B1: M31-B01 Fab LC W91Y (Fab, V domains shown)
VH: EVQLLESGGGLVQPGGSLRLSCAASGFTFSNAWMSWVRQAPGKGLEWVSYISSSGSTIYYADSVKGRFTISRDNSKNTLYLQMNSLRAEDTAVYYCAREGLWAFDYWGQGTLVTVTS
VL: QSVLTQPPSASGTPGQRVTISCTGSSSNIGAGYVVHWYQQLPGTAPKLLIYDNNKRPSGVPDRFSGSKSGTSASLAISGLRSEDEADYYCAAYDDRLNGPVFGGGTKLTVLG
notes: Fab with 3×HA-tag and hexa-histidine tag at the C-terminus of the heavy chain, culture supernatant
B2: M31-B01 Fab LC W91F (Fab, V domains shown)
VH: B1 VH
VL: B1 VL with Y93F
notes: as for B1
B3: wild-type Fab M20-D02 S-A (Fab, V domains shown)
VH: EVQLLESGGGLVQPGGSLRLSCAASGFTFSDYQMTWIRQTPGKGLEWVSGVSWNGARTHYADSVKGRFTISRDNSKNTLYLQMNSLRAEDTAVYYCAKGDYLVYSAYYFDSWGQGTLVTVTS
VL: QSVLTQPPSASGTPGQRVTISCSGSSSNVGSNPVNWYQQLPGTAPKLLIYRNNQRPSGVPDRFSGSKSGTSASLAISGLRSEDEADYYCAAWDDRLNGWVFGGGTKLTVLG
notes: Fab with 3×HA-tag and hexa-histidine tag at the C-terminus of the heavy chain, E. coli culture supernatant; also called M20-D02 S-A (parental Fab)
B4: M20-D02 S-A Fab HC A55G (Fab, V domains shown)
VH: B3 VH with A56G
VL: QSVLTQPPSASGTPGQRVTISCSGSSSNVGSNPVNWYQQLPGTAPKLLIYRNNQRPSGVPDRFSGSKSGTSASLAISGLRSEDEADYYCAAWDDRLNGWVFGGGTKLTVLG
notes: as for B1
B5: M20-D02 S-A Fab HC A100bR (Fab, V domains shown)
VH: B3 VH with A106R
VL: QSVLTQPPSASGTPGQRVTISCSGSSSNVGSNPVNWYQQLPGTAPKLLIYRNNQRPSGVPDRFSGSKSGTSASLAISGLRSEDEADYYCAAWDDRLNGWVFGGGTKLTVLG
notes: as for B1
B6: M20-D02 S-A Fab HC D101E (Fab, V domains shown)
VH: B3 VH with D110E
VL: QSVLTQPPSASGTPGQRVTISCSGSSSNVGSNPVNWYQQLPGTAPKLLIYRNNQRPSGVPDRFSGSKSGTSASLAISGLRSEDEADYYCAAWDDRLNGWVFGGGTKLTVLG
notes: as for B1
B7: M20-D02 S-A Fab LC V97A (Fab, V domains shown)
VH: B3 VH
VL: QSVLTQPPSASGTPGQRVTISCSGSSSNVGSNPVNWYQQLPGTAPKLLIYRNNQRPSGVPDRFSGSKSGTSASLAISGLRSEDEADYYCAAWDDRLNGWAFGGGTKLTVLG
notes: as for B1
B8: M20-D02 S-A Fab HC S100aR (Fab, V domains shown)
VH: B3 VH with S105R
VL: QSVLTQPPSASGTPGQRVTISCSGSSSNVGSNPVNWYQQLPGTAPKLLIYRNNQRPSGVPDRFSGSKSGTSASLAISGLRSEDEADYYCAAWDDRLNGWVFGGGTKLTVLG
notes: as for B1
B9: M20-D02 S-A Fab HC D101R (Fab, V domains shown)
VH: B3 VH with D110R
VL: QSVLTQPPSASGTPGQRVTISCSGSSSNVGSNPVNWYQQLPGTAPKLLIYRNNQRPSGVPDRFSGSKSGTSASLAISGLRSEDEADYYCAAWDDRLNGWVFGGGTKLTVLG
notes: as for B1
B10: M20-D02 S-A Fab LC D92G (Fab, V domains shown)
VH: B3 VH
VL: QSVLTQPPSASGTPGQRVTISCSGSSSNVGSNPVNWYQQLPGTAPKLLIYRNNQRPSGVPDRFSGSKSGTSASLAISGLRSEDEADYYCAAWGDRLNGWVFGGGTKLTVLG
notes: as for B1
B11: M20-D02 S-A Fab HC V51I (Fab, V domains shown)
VH: B3 VH with V51I
VL: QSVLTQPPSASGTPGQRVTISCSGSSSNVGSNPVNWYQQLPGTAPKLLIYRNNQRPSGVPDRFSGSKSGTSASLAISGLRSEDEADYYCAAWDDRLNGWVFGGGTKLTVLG
notes: as for B1
B12: M20-D02 S-A Fab HC A100bS (Fab, V domains shown)
VH: B3 VH with A106S
VL: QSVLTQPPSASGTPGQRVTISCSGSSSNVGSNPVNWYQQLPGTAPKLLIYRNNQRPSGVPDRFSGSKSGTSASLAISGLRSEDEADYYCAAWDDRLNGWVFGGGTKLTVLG
notes: as for B1
B13: M20-D02 S-A Fab LC V97G (Fab, V domains shown)
VH: B3 VH
VL: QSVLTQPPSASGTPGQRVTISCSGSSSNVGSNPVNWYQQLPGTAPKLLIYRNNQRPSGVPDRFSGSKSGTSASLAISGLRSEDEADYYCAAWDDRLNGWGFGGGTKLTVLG
notes: as for B1
B14: M20-D02 S-A Fab HC S100aK (Fab, V domains shown)
VH: B3 VH with S105K
VL: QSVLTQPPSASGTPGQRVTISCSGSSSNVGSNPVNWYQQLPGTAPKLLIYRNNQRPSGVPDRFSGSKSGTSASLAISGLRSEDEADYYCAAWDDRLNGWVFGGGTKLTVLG
notes: as for B1
B15: M20-D02 S-A Fab HC D101K (Fab, V domains shown)
VH: B3 VH with D110K
VL: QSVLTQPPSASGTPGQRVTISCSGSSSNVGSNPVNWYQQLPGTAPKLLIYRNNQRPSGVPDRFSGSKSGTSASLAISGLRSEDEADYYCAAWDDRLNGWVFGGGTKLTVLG
notes: as for B1
B16: M20-D02 S-A Fab LC A90Q (Fab, V domains shown)
VH: B3 VH
VL: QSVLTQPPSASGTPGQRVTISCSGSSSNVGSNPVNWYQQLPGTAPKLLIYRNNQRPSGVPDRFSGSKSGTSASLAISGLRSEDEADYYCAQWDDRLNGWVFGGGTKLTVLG
notes: as for B1
B17: M20-D02 S-A Fab HC R56S (Fab, V domains shown)
VH: B3 VH with R57S
VL: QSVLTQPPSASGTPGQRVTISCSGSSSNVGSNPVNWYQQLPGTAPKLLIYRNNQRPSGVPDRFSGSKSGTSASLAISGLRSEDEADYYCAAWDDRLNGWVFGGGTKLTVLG
notes: as for B1
B18: M20-D02 S-A Fab LC A90R (Fab, V domains shown)
VH: B3 VH
VL: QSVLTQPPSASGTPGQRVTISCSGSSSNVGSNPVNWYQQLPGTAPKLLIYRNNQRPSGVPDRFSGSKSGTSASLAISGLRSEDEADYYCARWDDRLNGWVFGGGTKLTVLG
notes: as for B1
B19: B01-12 (antibody, V domains shown)
VH: B1 VH with N31S, T57S, I58T, Y106K, T116S
VL: B1 VL with T23S, K55Q, Y93F, N98S
notes: tested as human IgG1
B20: D02-4 (antibody, human IgG1, V domains shown)
VH: B3 VH with V51I, A56G, R57S, T121S
VL: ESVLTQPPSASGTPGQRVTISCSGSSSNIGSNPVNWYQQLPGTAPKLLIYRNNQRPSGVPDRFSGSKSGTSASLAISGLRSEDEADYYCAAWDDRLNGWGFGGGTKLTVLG
notes: tested as human IgG1; also called D02-04

These binders were tested against T1, recombinant soluble human C4.4a (assay: direct ELISA, Fab supernatant on coated human C4.4a, signal normalized to Fab quantity).
Experimental: (§1) Cultures were diluted in 10% Smart Block in PBST and bound to the MTP plates for 1 h at 20° C. After washing with PBST, captured antibodies were incubated with a HRP-coupled anti-lambda antibody (Sigma, A5175) and detected by incubating the plate with 10 μM amplex red substrate (Invitrogen, A12222) for 30 minutes at 20° C. in the dark followed by fluorescence measurement. Determined quantification signals were checked to be in the dynamic range of an calibration series built up with concentrated parental Fab (M31-B01 or M20-D02-S-A) expression culture supernatant allowing a relative quantification of each individual Fab expression sample.
(§2) To determine the activity of the mutated Fab variants on recombinant soluble human or mouse C4.4a a direct ELISA assay format was used. Briefly, MTP plates (Nunc maxisorp black, 460518) were coated with 2 μg/ml either human or mouse C4.4a diluted in coating buffer (Candor Bioscience GmbH, 121125) and incubated for 15 h at 4° C. After washing 3 times with PBST, plates were blocked with 100% Smart Block (Candor Bioscience GmbH, 113500) for 1 h at 20° C. and the washing steps were repeated. For binding of the Fab antibody fragments 20 μl of culturing supernatants were added to the plates for 1 h at 20° C. followed by washing. In some cases the washing stringency was increased by an additional incubation step with 10% Smart Block in PBST for 90 min followed by washing 3 times with PBST (“process B” in Table 10b). Bound parental Fabs and variants were then detected by a HA-epitope tag specific antibody HRP conjugate (Bethyl, A190-108P). 10 μM amplex red substrate (Invitrogen, A12222) was added to the plates and the fluorescence signal was detected using a common fluorescence reader, e.g. Tecan Ultra. Quantity normalized affinity signals were calculated as ratios of background corrected affinity and quantification signals in the respective ELISA: (Signalaffinity−Backgroundaffinity)/(Signalquantity−Backgroundquantity). The resulting values correlate mainly with the affinity in a positive manner, whereas not normalized values correlate additionally with the concentration of the binding Fab in the sample.

normalized affinity signal (average)	normalized affinity signal (median, process A)	Binder
4.97		B1
4.3		B2
0.04	0.15	B3
	0.15	B4
0.87		B5
0.31		B6
1.32		B7
0.43		B8
0.61		B9
0.64		B10
	0.52	B11
0.34		B12
1.21		B13
0.45		B14
1.65		B15
1.41		B16
	0.21	B17
0.94		B18

These binders were tested against T2, murine C4.4a on transfected … (assay: FACS titration of IgG1 on CHO-S:mC4.4a cells).

EC50	Binder
1.4 nM	B19

These binders were tested against T3, recombinant soluble murine C4.4a (assay: SPR (Biacore T100), IgG1 captured by anti-human Fc, soluble C4.4a injected, 1:1 fit).
Experimental: (§3) Binding affinities of anti C4.4 antibodies were determined by surface plasmon resonance analysis on a Biacore T100 instrument (GE Healthcare Biacore, Inc.). Antibodies were immobilized onto a CM5 sensor chip through an indirect capturing reagent, anti-human IgG Fc. Reagents from the “Human Antibody Capture Kit” (BR-1008-39, GE Healthcare Biacore, Inc.) were used as described by the manufacturer. Approximately 5000 RU monoclonal mouse anti-human IgG (Fc) antibody were immobilized per cell. Anti C4.4 antibodies were injected at a concentration of 5 μg/ml at 10 μl/min for 10 sec to reach a capturing level of approximately 200 to 600 RU. Various concentrations (400 nM, 200 nM, 100 nM, 50 nM, 25 nM, 12.5 nM, 6.25 nM, and 3.12 nM) in HEPES-EP buffer (GE Healthcare Biacore, Inc.) of human or murine C4.4a were injected over immobilized anti C4.4a antibodies at a flow rate of 60 μl/min for 3 minutes and the dissociation was allowed for 10 minutes. Sensograms were generated after in-line reference cell correction followed by buffer sample subtraction. The dissociation equilibrium constant (KD) was calculated based on the ratio of association (kₒₙ) and dissociation rated (koff) constants, obtained by fitting sensograms with a first order 1:1 binding model using Biavaluation Software (version 4.0).

Kd	Binder
2 nM	B19
56 nM	B20

What follows are binders tested against T1, recombinant soluble human C4.4a in the same assay as above.
Experimental: as §3

Kd	Binder
1 nM	B19
29 nM	B20

Each binder was assayed against T3, recombinant soluble murine C4.4a (assay: direct ELISA, Fab supernatant on coated mouse C4.4a, signal normalized to Fab quantity).
Experimental: as §1, §2

normalized affinity signal (average)	normalized affinity signal (median, process A)	Binder
2.79		B1
2.53		B2
0.01	0.04	B3
	0.04	B4
0.01		B5
0.05		B6
0.52		B7
0.02		B8
0.03		B9
0.1		B10
	0.16	B11
0.02		B12
0.3		B13
0.06		B14
0.21		B15
0.29		B16
	0.06	B17
0.17		B18
